This is an account of results in patent US20050069530A1.

Test in all cases: cell-based or functional assay
The target in one assay is crotoxin B, P62022.
Assay [1] concerns the target T1, human recombinant cytosolic PLA2 (cPLA2) (human), P47712.
T1 chain: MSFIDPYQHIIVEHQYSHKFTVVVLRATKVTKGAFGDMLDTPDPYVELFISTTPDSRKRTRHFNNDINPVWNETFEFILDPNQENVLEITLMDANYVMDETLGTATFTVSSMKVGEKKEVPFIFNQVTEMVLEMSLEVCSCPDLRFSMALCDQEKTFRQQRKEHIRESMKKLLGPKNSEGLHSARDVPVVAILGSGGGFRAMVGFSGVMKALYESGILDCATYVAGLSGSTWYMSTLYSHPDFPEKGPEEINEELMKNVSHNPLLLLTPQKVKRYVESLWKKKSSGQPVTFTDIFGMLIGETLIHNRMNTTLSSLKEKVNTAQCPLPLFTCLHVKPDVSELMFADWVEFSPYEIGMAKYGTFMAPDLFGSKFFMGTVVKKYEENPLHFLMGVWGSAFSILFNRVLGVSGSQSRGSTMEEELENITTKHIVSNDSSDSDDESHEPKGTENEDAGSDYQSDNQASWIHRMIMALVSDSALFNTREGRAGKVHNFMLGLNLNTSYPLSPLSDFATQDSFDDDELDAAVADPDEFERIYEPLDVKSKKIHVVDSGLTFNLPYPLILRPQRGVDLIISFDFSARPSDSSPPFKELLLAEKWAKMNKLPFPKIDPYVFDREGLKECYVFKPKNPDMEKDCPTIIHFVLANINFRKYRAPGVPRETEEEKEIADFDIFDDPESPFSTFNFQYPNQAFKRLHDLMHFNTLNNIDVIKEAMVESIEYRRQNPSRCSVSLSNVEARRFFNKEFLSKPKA

The target in assay [2] is T2, human type IIA sPLA2 (human), P14555.
T2 chain: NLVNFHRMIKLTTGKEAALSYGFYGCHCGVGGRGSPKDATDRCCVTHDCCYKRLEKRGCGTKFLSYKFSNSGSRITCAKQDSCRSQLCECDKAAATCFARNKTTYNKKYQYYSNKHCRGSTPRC

Molecule YRRVDIGLRVWHDLGVG (modifications not checked) [Scrambled P-NT.II] yielded an IC50 of PLA2 enzyme inhibition (labeled E. coli membrane assay) in the assay with crotoxin B, P62022 of over 250 µM.

Molecule LGRVDIHVWDGVYIRGR (modifications not checked) [P-NT.II] returned an IC50 of PLA2 enzyme inhibition (labeled E. coli membrane assay) in the assay with crotoxin B, P62022 of 4.9 µM. The selectivity of enzyme inhibition, sPLA2 over cPLA2 in assay [1] was 5 fold. In assay [2], this molecule showed an IC50 of sPLA2 enzyme inhibition (3H-labelled E. coli membranes as substrate) of 5.3 µM.
